# Laboratory results: patent publication US20040048790A1 (published 2004)
# Like-named read-outs stand apart in the source and are kept apart here. Non-standard residues stand in square brackets, D forms with d. No end group written: not given here. Abu = CC[C@H](N)C(=O)O
# Key:
# HLA-B*0702 [1] = biological target: HLA-B*0702 (human); test: 125I-probe peptide inhibition, purified HLA
# HLA-B*3501 = HLA-B*3501 (human); test: 125I-probe peptide inhibition, purified HLA
# HLA-B*5301 [2] = biological target: HLA-B*5301 (human); test: 125I-probe peptide inhibition, purified HLA
# HLA-B*5401 [3] = biological target: HLA-B*5401 (human); test: 125I-probe peptide inhibition, purified HLA
# HLA-B*0702 [4] = biological target: HLA-B*0702 (human); test: competition vs 125I probe peptide, purified HLA
# HLA-B*5101 [5] = biological target: HLA-B*5101 (human); test: competition vs 125I probe peptide, purified HLA
# HLA-B*5301 [6] = biological target: HLA-B*5301 (human); test: competition vs 125I probe peptide, purified HLA
# HLA-B*5401 [7] = biological target: HLA-B*5401 (human); test: competition vs 125I probe peptide, purified HLA
# HLA-A*6801 = HLA-A*6801 (human); test: 125I-probe peptide inhibition, purified HLA
# HLA-A*2402 = HLA-A*2402 (human); test: competition vs 125I probe peptide, purified HLA
# HLA-B*5101 [8] = biological target: HLA-B*5101 (human); test: 125I-probe peptide inhibition, purified HLA
# HLA-A*0206 [9] = biological target: HLA-A*0206 (human); test: 125I-probe peptide inhibition, purified HLA
# HLA-A*0203 = HLA-A*0203 (human); test: 125I-probe peptide inhibition, purified HLA
# HLA-A*0206 [10] = biological target: HLA-A*0206 (human); test: 125I-probe peptide inhibition, purified HLA; remark: listed apart in the source
binder,measurement,setting,value
FPAPSWPI [p53.86.F118],IC50,HLA-B*0702 [1],120 nM
same,IC50,HLA-B*3501,4.8 nM
same,IC50,HLA-B*5301 [2],3.3 nM
same,IC50,HLA-B*5401 [3],1.6 nM
FPAPSWPL [p53.86.F1],IC50,HLA-B*3501,3.1 nM
same,IC50,HLA-B*5301 [2],4 nM
same,IC50,HLA-B*5401 [3],9.1 nM
FPILTIITI [p53.249.F1I9],IC50,HLA-B*0702 [4],74 nM
same,IC50,HLA-B*5101 [5],9 nM
same,IC50,HLA-B*5301 [6],4 nM
same,IC50,HLA-B*5401 [7],1.8 nM
FPILTIITL [p53.249.F1],IC50,HLA-B*0702 [4],6.5 nM
same,IC50,HLA-B*5401 [7],5 nM
FPAAPTPAAPA [p53.76.F1 (11-mer)],IC50,HLA-B*0702 [1],34 nM
same,IC50,HLA-B*5401 [3],1.3 nM
SS[Abu]MGGMNK [p53.240 (9-mer SSBMGGMNK)],IC50,HLA-A*6801,140 nM
FPAPAAPTPA [p53.74.F1 (10-mer)],IC50,HLA-B*0702 [1],0.8 nM
same,IC50,HLA-B*3501,28 nM
same,IC50,HLA-B*5401 [3],1.1 nM
FPRMPEAAPPI [p53.63.F1111],IC50,HLA-B*5301 [2],5470 nM
same,IC50,HLA-B*5401 [3],2.9 nM
FPRMPEAAPPV [p53.63F1],IC50,HLA-B*5401 [3],0.3 nM
FPALNKMI [p53.127.F1I8],IC50,HLA-B*5101 [5],220 nM
TYQGSYGFRF [p53.102.F10],IC50,HLA-A*2402,30 nM
FPAAPTPAA [p53.76.F1 (9-mer)],IC50,HLA-B*5101 [8],809 nM
same,IC50,HLA-B*5301 [2],620 nM
same,IC50,HLA-B*5401 [3],1 nM
FPPVAPAPAI [p53.70.F1110],IC50,HLA-B*0702 [1],290 nM
same,IC50,HLA-B*5401 [3],63 nM
FPAPAPSWPI [p53.84.F1110],IC50,HLA-B*5401 [3],1.2 nM
FPAPAPSWPL [p53.84.F1],IC50,HLA-B*3501,5.1 nM
same,IC50,HLA-B*5401 [3],1.7 nM
FPSWPLSSSV [p53.88.F1],IC50,HLA-B*5301 [6],93 nM
same,IC50,HLA-B*5401 [7],0.3 nM
FPLPSQAI [p53.33.F1],IC50,HLA-B*3501,720 nM
same,IC50,HLA-B*5301 [2],291 nM
same,IC50,HLA-B*5401 [3],83 nM
[Abu]QLAKT[Abu]PV [p53.135B1B7],IC50,HLA-A*0206 [9],67 nM
[Abu]LLAKT[Abu]PV [p53.135B1L2B7],IC50,HLA-A*0203,7.7 nM
same,IC50,HLA-A*0206 [10],64 nM
FPTPAAPI [p53.79.F118],IC50,HLA-B*0702 [1],90 nM
same,IC50,HLA-B*5301 [2],6200 nM
same,IC50,HLA-B*5401 [3],7.7 nM
FPSWPLSSSI [p53.88.F1110],IC50,HLA-B*5301 [2],8.5 nM
same,IC50,HLA-B*5401 [3],2.4 nM
FPAPAAPTPAA [p53.74.F1 (11-mer)],IC50,HLA-B*0702 [1],87 nM
same,IC50,HLA-B*5401 [3],2.1 nM
